{
  "source": "patent US6372438",
  "binders": {"B1": {"name": "peptide Y719P (peptide)", "peptide": "GGYMDMSKDESID[pY]VPMLDM"}},
  "molecular_target": "85 kD protein / PI3 kinase (phosphatidylinositol 3' kinase) of BALB/c 3T3 cells (mouse (BALB/c 3T3 cells))",
  "sequence (P26450 2-724)": "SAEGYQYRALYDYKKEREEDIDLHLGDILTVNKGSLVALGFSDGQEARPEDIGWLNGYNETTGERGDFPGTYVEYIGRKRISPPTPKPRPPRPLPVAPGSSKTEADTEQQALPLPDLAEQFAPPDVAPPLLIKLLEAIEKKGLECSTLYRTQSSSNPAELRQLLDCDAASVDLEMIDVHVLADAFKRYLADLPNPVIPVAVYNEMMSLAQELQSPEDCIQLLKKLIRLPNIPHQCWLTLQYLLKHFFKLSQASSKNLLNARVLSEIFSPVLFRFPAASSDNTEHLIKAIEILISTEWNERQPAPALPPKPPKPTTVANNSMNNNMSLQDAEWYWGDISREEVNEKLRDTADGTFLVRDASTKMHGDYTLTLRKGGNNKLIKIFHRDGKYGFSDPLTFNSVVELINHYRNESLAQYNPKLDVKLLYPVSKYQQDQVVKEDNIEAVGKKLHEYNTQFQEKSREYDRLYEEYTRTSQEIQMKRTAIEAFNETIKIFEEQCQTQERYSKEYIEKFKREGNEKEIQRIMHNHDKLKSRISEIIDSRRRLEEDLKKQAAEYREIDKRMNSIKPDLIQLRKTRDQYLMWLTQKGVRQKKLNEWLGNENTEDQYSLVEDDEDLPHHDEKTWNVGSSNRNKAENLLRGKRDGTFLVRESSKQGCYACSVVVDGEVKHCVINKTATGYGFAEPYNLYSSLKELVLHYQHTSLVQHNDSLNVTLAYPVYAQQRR",
  "assay": "competition: range of peptide concentrations preincubated with 3T3 lysate before immobilised receptor m1; in vitro kinase and PI3 kinase assays",
  "note": "Square brackets hold non-standard residues; d marks the D form. Ends that are not written are not given here. pY = N[C@@H](Cc1ccc(OP(=O)(O)O)cc1)C(=O)O",
  "data": [
    {"binder": "B1", "values": [
      {"measurement": "IC50", "result": "< 5", "unit": "µM"}
    ]}
  ]
}
